For one series, the target named is T1, CP190 (Drosophila, UniProt Q24478 1-1096).
T1 sequence: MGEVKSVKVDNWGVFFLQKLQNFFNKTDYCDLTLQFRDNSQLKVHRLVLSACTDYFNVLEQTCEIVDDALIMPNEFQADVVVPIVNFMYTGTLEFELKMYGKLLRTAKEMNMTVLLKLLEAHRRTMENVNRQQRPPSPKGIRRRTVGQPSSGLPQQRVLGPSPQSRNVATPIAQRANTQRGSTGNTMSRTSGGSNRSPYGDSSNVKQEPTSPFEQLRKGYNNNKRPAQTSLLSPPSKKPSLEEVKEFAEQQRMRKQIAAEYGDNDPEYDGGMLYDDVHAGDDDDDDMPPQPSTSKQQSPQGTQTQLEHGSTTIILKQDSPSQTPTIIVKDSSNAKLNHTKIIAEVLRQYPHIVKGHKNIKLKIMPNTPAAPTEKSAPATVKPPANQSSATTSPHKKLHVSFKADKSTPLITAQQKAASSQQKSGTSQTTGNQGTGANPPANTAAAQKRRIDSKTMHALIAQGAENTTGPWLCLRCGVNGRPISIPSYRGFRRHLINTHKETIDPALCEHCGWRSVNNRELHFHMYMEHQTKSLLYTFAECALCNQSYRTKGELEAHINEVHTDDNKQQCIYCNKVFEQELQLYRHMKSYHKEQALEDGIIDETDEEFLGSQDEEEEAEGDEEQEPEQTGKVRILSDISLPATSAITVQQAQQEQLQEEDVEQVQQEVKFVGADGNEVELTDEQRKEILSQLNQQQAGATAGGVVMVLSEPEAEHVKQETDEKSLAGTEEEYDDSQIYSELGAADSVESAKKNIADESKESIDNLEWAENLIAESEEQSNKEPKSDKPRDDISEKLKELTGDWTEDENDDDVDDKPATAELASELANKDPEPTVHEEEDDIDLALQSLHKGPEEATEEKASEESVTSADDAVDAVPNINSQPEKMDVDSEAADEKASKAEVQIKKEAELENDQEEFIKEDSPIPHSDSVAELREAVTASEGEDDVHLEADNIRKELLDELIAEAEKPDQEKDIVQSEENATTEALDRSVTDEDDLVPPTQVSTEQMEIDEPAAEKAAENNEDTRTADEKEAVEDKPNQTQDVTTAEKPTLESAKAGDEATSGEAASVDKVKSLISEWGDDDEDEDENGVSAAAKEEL
The series can be described thus: fluorescence anisotropy; Hill n=2±0.3; 20 uM ZnSO4; FA/FCS: 30 mM Tris/HCl pH 7.5, 100 mM NaCl, 20 uM ZnSO4, 5 mM mercaptoethanol, 0.01 mg/ml BSA, 0.004% Tween20, 2.5 nM DNA; EMSA: 150 mM NaCl, 30 mM Tris/HCl pH. Conditions: protein: recombinant; tags: N-term 6xHis; blunt.

In another series the target is T2, BEAF32 (BEAF32B) (Drosophila, UniProt Q94513 1-282).
T2 sequence: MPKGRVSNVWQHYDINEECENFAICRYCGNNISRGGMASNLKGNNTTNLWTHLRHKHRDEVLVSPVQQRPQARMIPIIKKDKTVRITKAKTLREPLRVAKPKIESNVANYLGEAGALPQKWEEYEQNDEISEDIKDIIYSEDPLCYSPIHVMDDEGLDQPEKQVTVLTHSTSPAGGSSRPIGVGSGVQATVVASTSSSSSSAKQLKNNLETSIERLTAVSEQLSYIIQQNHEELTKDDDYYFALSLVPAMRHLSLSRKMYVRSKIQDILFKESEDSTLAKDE
The experiment in a line: fluorescence anisotropy; single-site fit; 20 uM ZnSO4; FA/FCS: 30 mM Tris/HCl pH 7.5, 100 mM NaCl, 20 uM ZnSO4, 5 mM mercaptoethanol, 0.01 mg/ml BSA, 0.004% Tween20, 2.5 nM DNA; EMSA: 150 mM NaCl, 30 mM Tris/HCl pH. The settings on record: protein: recombinant; tags: N-term MBP; C-term 6xHis; blunt. Background: Polarisation of emitted light reports the rotation of a fluorescent probe.

Series [1] deals with the molecule itself. The experiment in a line: SEC; gel-filtration analysis of CP190-BTB/POZ; conditions not shown. A general note: SEC sorts molecules by how far they enter the pores of the column.
The target of series [2] is T3, Chromator, full-length, His-tagged (Drosophila, UniProt Q86BS3 1-926).
T3 construct: Chromator (Chriz), Drosophila; amplified from S2 cell cDNA; also called Chriz; source: E. coli BL21 (DE3)-pLysS, purified
T3 sequence (looked up): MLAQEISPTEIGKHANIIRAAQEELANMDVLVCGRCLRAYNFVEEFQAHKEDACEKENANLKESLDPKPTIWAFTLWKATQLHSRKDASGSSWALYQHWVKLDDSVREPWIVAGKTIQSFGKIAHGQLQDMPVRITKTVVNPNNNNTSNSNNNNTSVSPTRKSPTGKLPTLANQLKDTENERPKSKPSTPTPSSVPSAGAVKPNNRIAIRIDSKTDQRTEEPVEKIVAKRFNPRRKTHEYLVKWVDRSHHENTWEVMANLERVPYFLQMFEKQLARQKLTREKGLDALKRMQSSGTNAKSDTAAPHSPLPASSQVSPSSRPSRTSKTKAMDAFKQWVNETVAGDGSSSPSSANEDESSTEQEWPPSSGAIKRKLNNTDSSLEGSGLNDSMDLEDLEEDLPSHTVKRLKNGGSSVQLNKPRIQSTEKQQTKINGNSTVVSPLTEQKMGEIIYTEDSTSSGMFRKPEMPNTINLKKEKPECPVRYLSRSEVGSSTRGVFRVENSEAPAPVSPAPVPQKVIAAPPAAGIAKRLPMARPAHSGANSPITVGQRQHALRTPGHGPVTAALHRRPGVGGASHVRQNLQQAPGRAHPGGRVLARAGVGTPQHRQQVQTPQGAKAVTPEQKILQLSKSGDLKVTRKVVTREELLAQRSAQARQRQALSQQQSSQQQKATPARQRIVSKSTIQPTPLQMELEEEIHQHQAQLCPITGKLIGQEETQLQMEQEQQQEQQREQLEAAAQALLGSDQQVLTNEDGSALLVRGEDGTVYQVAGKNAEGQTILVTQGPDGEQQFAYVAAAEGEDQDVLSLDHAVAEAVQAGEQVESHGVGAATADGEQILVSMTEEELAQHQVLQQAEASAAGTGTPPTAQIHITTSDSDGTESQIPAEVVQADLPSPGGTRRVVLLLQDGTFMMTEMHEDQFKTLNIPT
The series can be described thus: fluorescence polarisation; fluorescence anisotropy of CP190-BTB/POZ-Cy5 as reporter of Chromator binding; apparent affinity. The settings on record: both partners purified.

B1: DNANS (dsDNA)
DNA 1: GGACAGGTATTGTGCCATACTGACCACATCGTCTTGGTCTATAAGCTCCACGACATCC
DNA 2: GGATGTCGTGGAGCTTATAGACCAAGACGATGTGGTCAGTATGGCACAATACCTGTCC
For the molecule B1, the figures for the Kd with CP190 and with BEAF32 (BEAF32B) were 109 ± 5 nM and 165 ± 30 nM, respectively.

B2: CP190-BTB/POZ (BTB/POZ domain of CP190), His-tagged (domain or fragment, Drosophila)
chain: MGEVKSVKVDNWGVFFLQKLQNFFNKTDYCDLTLQFRDNSQLKVHRLVLSACTDYFNVLEQTCEIVDDALIMPNEFQADVVVPIVNFMYTGTLEFELKMYGKLLRTAKEMNMTVLLKLLEAHRRTMENVNRQQR
notes: N-terminal BTB/POZ domain of CP190, Drosophila; source: E. coli BL21 (DE3)-pLysS, purified
In general, stoichiometry N refers to a count of units in the complex or per binding partner. With B2, in series [1], the “stoichiometry N” value was 2.

B3: CP190-BTB/POZ-Cy5 (CP190-BTB/POZ Cy5-labelled on its N-terminal) (domain or fragment, Drosophila)
chain: B2 chain
modifications: Cy5 on the N-terminal
notes: N-terminal BTB/POZ domain of CP190, Drosophila; same construct as m4, labelled with Cy5; Same protein as m4 with a Cy5 label; source: E. coli BL21 (DE3)-pLysS, purified
B3: the Kd in series [2] was roughly 50 nM.

Source of the values: PMC4148193, “Chromatin Insulator Factors Involved in Long-Range DNA Interactions and Their Role in the Folding of the Drosophila Genome” (PLoS Genetics, 2014).
